Laboratory results: patent US12630600B2 (MEDIMMUNE LIMITED, priority 2022, dated 2026)
Starred links: 1 amine or outer side, 2 acyl side, 3 side chain; linkers in the order of their positions; H or OH if unused. Non-standard residues stand in square brackets, D forms with d. Groups on a side chain read outwards from the residue. No end group written: not given here. *: point of attachment. Trp(5-Br) = N[C@@H](Cc1c[nH]c2ccc(Br)cc12)C(=O)O; Bip = N[C@@H](Cc1ccc(-c2ccccc2)cc1)C(=O)O; C18 diacid = O=C(O)CCCCCCCCCCCCCCCCC(=O)*; γGlu = O=C(O)[C@H](CCC(=O)[*:2])N[*:1]; αMeF = C[C@](N)(Cc1ccccc1)C(=O)O; AEEA = NCCOCCOCC(=O)O; Aib = CC(C)(N)C(=O)O

Assays:
human glucagon receptor = human glucagon receptor (human, UniProt P47871); assay: cell-based or functional assay
human GLP-1 receptor = human GLP-1 receptor (human, UniProt P43220); assay: cell-based or functional assay

Binder | cAMP production EC50 (human glucagon receptor) [nM] | cAMP production EC50 (human GLP-1 receptor) [nM]
H[Aib]QGTFTSDVSK[αMeF]LDSK([AEEA-AEEA-γGlu-γGlu-C18 diacid])RAQDFVRWLEA[Aib]G-NH2 (N-terminus assumed; SMILES CC(C)C[C@H](NC(=O)[C@H](Cc1c[nH]c2ccccc12)NC(=O)[C@H](CCCNC(=N)N)NC(=O)[C@@H](NC(=O)[C@H](Cc1ccccc1)NC(=O)[C@H](CC(=O)O)NC(=O)[C@H](CCC(N)=O)NC(=O)[C@H](C)NC(=O)[C@H](CCCNC(=N)N)NC(=O)[C@H](CCCCNC(=O)COCCOCCNC(=O)COCCOCCNC(=O)CC[C@H](NC(=O)CC[C@H](NC(=O)CCCCCCCCCCCCCCCCC(=O)O)C(=O)O)C(=O)O)NC(=O)[C@H](CO)NC(=O)[C@H](CC(=O)O)NC(=O)[C@H](CC(C)C)NC(=O)[C@](C)(Cc1ccccc1)NC(=O)[C@H](CCCCN)NC(=O)[C@H](CO)NC(=O)[C@@H](NC(=O)[C@H](CC(=O)O)NC(=O)[C@H](CO)NC(=O)[C@@H](NC(=O)[C@H](Cc1ccccc1)NC(=O)[C@@H](NC(=O)CNC(=O)[C@H](CCC(N)=O)NC(=O)C(C)(C)NC(=O)[C@@H](N)Cc1c[nH]cn1)[C@@H](C)O)[C@@H](C)O)C(C)C)C(C)C)C(=O)N[C@@H](CCC(=O)O)C(=O)N[C@@H](C)C(=O)NC(C)(C)C(=O)NCC(N)=O) [Peptide 430] | 0.16 | 0.0244
H[Aib]QGTFTSDVSK[αMeF]LDSK([AEEA-AEEA-γGlu-C18 diacid])RAQDFVRWLEA[Aib]G-NH2 (N-terminus assumed; SMILES CC(C)C[C@H](NC(=O)[C@H](Cc1c[nH]c2ccccc12)NC(=O)[C@H](CCCNC(=N)N)NC(=O)[C@@H](NC(=O)[C@H](Cc1ccccc1)NC(=O)[C@H](CC(=O)O)NC(=O)[C@H](CCC(N)=O)NC(=O)[C@H](C)NC(=O)[C@H](CCCNC(=N)N)NC(=O)[C@H](CCCCNC(=O)COCCOCCNC(=O)COCCOCCNC(=O)CC[C@H](NC(=O)CCCCCCCCCCCCCCCCC(=O)O)C(=O)O)NC(=O)[C@H](CO)NC(=O)[C@H](CC(=O)O)NC(=O)[C@H](CC(C)C)NC(=O)[C@](C)(Cc1ccccc1)NC(=O)[C@H](CCCCN)NC(=O)[C@H](CO)NC(=O)[C@@H](NC(=O)[C@H](CC(=O)O)NC(=O)[C@H](CO)NC(=O)[C@@H](NC(=O)[C@H](Cc1ccccc1)NC(=O)[C@@H](NC(=O)CNC(=O)[C@H](CCC(N)=O)NC(=O)C(C)(C)NC(=O)[C@@H](N)Cc1c[nH]cn1)[C@@H](C)O)[C@@H](C)O)C(C)C)C(C)C)C(=O)N[C@@H](CCC(=O)O)C(=O)N[C@@H](C)C(=O)NC(C)(C)C(=O)NCC(N)=O) [Peptide 429] | 0.144 | 0.015
H[Aib]QGTFTSDVSK[αMeF]LDTK([AEEA-AEEA-γGlu-γGlu-C18 diacid])RAQDFVAWLEA[Aib]G-NH2 (N-terminus assumed; SMILES CC(C)C[C@H](NC(=O)[C@H](Cc1c[nH]c2ccccc12)NC(=O)[C@H](C)NC(=O)[C@@H](NC(=O)[C@H](Cc1ccccc1)NC(=O)[C@H](CC(=O)O)NC(=O)[C@H](CCC(N)=O)NC(=O)[C@H](C)NC(=O)[C@H](CCCNC(=N)N)NC(=O)[C@H](CCCCNC(=O)COCCOCCNC(=O)COCCOCCNC(=O)CC[C@H](NC(=O)CC[C@H](NC(=O)CCCCCCCCCCCCCCCCC(=O)O)C(=O)O)C(=O)O)NC(=O)[C@@H](NC(=O)[C@H](CC(=O)O)NC(=O)[C@H](CC(C)C)NC(=O)[C@](C)(Cc1ccccc1)NC(=O)[C@H](CCCCN)NC(=O)[C@H](CO)NC(=O)[C@@H](NC(=O)[C@H](CC(=O)O)NC(=O)[C@H](CO)NC(=O)[C@@H](NC(=O)[C@H](Cc1ccccc1)NC(=O)[C@@H](NC(=O)CNC(=O)[C@H](CCC(N)=O)NC(=O)C(C)(C)NC(=O)[C@@H](N)Cc1c[nH]cn1)[C@@H](C)O)[C@@H](C)O)C(C)C)[C@@H](C)O)C(C)C)C(=O)N[C@@H](CCC(=O)O)C(=O)N[C@@H](C)C(=O)NC(C)(C)C(=O)NCC(N)=O) [Peptide 431] | 0.194 | 0.0446

Results, then the binder that gave them:

cAMP production EC50 (human glucagon receptor) [nM] | cAMP production EC50 (human GLP-1 receptor) [nM] | Binder
0.294 | 0.153 | H[Aib]QGTFTSDVSK[αMeF]LDSK([AEEA-AEEA-γGlu-C18 diacid])RAQDFVR[Trp(5-Br)]LL[Aib]E-OH (N-terminus assumed; SMILES CC(C)C[C@H](NC(=O)[C@H](Cc1c[nH]c2ccc(Br)cc12)NC(=O)[C@H](CCCNC(=N)N)NC(=O)[C@@H](NC(=O)[C@H](Cc1ccccc1)NC(=O)[C@H](CC(=O)O)NC(=O)[C@H](CCC(N)=O)NC(=O)[C@H](C)NC(=O)[C@H](CCCNC(=N)N)NC(=O)[C@H](CCCCNC(=O)COCCOCCNC(=O)COCCOCCNC(=O)CC[C@H](NC(=O)CCCCCCCCCCCCCCCCC(=O)O)C(=O)O)NC(=O)[C@H](CO)NC(=O)[C@H](CC(=O)O)NC(=O)[C@H](CC(C)C)NC(=O)[C@](C)(Cc1ccccc1)NC(=O)[C@H](CCCCN)NC(=O)[C@H](CO)NC(=O)[C@@H](NC(=O)[C@H](CC(=O)O)NC(=O)[C@H](CO)NC(=O)[C@@H](NC(=O)[C@H](Cc1ccccc1)NC(=O)[C@@H](NC(=O)CNC(=O)[C@H](CCC(N)=O)NC(=O)C(C)(C)NC(=O)[C@@H](N)Cc1c[nH]cn1)[C@@H](C)O)[C@@H](C)O)C(C)C)C(C)C)C(=O)N[C@@H](CC(C)C)C(=O)NC(C)(C)C(=O)N[C@@H](CCC(=O)O)C(=O)O) [Peptide 434]
1.16 | 1.38 | H[Aib]QGTFTSDVSK[αMeF]LDSK([AEEA-AEEA-γGlu-C18 diacid])RAQDFVR[Bip]LL[Aib]E-OH (N-terminus assumed; SMILES CC(C)C[C@H](NC(=O)[C@H](Cc1ccc(-c2ccccc2)cc1)NC(=O)[C@H](CCCNC(=N)N)NC(=O)[C@@H](NC(=O)[C@H](Cc1ccccc1)NC(=O)[C@H](CC(=O)O)NC(=O)[C@H](CCC(N)=O)NC(=O)[C@H](C)NC(=O)[C@H](CCCNC(=N)N)NC(=O)[C@H](CCCCNC(=O)COCCOCCNC(=O)COCCOCCNC(=O)CC[C@H](NC(=O)CCCCCCCCCCCCCCCCC(=O)O)C(=O)O)NC(=O)[C@H](CO)NC(=O)[C@H](CC(=O)O)NC(=O)[C@H](CC(C)C)NC(=O)[C@](C)(Cc1ccccc1)NC(=O)[C@H](CCCCN)NC(=O)[C@H](CO)NC(=O)[C@@H](NC(=O)[C@H](CC(=O)O)NC(=O)[C@H](CO)NC(=O)[C@@H](NC(=O)[C@H](Cc1ccccc1)NC(=O)[C@@H](NC(=O)CNC(=O)[C@H](CCC(N)=O)NC(=O)C(C)(C)NC(=O)[C@@H](N)Cc1c[nH]cn1)[C@@H](C)O)[C@@H](C)O)C(C)C)C(C)C)C(=O)N[C@@H](CC(C)C)C(=O)NC(C)(C)C(=O)N[C@@H](CCC(=O)O)C(=O)O) [Peptide 432]
